From patent US20100008937A1

What was measured:
[1] = target: human HA (high-affinity) LFA-1 on stably transfected K562 cells (human) (UniProt P20701); assay: cell-based or functional assay
[2] = target: human WT LFA-1 on stably transfected K562 cells (human) (UniProt P20701); assay: cell-based or functional assay
Sequence of human WT LFA-1 on stably transfected K562 cells (human) (P20701 26-1170, chain 1 of 2): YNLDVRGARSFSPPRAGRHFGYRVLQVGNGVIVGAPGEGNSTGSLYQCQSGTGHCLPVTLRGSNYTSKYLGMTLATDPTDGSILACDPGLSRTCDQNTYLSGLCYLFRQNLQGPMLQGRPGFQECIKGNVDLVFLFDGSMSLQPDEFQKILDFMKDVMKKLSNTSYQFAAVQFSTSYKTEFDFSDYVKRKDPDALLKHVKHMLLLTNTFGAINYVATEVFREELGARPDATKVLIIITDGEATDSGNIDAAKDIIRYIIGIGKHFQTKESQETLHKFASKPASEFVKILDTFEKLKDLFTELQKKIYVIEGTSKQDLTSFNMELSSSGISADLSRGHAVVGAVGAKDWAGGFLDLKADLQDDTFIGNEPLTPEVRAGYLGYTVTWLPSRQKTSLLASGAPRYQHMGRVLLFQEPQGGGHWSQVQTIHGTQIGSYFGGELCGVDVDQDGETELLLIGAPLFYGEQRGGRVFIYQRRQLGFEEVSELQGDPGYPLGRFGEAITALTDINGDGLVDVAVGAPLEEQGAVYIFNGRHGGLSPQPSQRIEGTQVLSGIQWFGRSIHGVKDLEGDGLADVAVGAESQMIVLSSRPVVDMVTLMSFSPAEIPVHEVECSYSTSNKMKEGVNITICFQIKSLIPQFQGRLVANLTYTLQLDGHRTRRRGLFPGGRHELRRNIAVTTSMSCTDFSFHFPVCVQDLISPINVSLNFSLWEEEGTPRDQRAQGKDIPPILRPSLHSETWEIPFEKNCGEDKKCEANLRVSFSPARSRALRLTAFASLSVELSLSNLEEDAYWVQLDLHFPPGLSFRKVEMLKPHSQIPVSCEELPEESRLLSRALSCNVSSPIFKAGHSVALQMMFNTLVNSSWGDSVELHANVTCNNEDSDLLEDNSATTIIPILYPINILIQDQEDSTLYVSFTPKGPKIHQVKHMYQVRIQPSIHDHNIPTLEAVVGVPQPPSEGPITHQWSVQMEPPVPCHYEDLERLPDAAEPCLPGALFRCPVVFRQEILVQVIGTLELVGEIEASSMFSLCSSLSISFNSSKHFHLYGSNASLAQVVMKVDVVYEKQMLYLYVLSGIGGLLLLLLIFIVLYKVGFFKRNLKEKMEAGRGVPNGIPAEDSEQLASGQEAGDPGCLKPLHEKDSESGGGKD
Sequence of human WT LFA-1 on stably transfected K562 cells (human) (P05107 23-769, chain 2 of 2, further chain): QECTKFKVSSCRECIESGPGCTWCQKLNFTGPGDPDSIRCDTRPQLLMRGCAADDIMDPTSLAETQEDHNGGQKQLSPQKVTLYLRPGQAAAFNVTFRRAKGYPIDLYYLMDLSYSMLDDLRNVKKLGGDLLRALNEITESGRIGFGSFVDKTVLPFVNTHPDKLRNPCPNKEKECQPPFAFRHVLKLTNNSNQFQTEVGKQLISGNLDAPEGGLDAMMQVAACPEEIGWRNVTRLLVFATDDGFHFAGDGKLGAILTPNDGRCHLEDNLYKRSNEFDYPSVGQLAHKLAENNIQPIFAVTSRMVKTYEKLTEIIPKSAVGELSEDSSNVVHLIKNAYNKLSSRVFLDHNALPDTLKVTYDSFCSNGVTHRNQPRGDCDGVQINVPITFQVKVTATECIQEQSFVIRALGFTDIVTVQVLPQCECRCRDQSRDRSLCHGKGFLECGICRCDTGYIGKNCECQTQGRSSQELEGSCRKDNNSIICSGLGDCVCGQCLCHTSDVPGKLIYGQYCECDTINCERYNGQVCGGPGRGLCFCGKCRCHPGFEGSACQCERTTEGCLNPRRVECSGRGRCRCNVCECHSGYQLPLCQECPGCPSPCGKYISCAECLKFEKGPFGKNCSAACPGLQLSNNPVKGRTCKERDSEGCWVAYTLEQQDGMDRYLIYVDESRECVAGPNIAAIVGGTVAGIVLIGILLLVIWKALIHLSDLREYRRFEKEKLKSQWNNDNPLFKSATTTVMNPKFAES

Sequence of human HA (high-affinity) LFA-1 on stably transfected K562 cells (human) (P20701 26-1170 K312C/K319C limits assumed, chain 1 of 2): as the sequence (P20701 26-1170, chain 1 of 2) above, with K287C, K294C counted along it
Sequence of human HA (high-affinity) LFA-1 on stably transfected K562 cells (human) (P05107 23-769 limits assumed, chain 2 of 2, further chain): as the sequence (P05107 23-769, chain 2 of 2, further chain) above

| Cy3+ K562 cells/Total K562 cells, % (in vivo Cy3-siRNA delivery) [1] | Cy3+ K562 cells/Total K562 cells, % (in vivo Cy3-siRNA delivery) [2] | Substance |
| --- | --- | --- |
| 88.1% | 23.3% | AL-57-protamine fusion protein (scFv AL-57 fused to human protamine residues 8-29, His6 tag) (from UniProt P04553 8-29) |
| 87.4% | 88.5% | TS1/22-protamine fusion protein (scFv TS1/22 fused to human protamine residues 8-29, His6 tag) (from UniProt P04553 8-29) |
